# Experimental data as given in patent US9114104B2, “Proteinase K inhibitors, methods and compositions therefor” (Life Technologies Corporation, priority 2008, dated 2015).
# “And” between values parts separate entries of the source, which are not always exact repeats. Equal values may be shown once.
# Experiments:
# Type in all cases: biochemical
# proteinase K [1] = target: T1, proteinase K (Parengyodontium album, UniProt P06873); assay: Detection of β-actin RNA in HeLa cell lysates after stop solution (in vitro validation); details: FIG. 6; ~10,000 HeLa cells lysed, β-actin RT-PCR
# Method: HeLa cells (˜10,000 cells) were lysed in 50 μl lysis solution for 5 minutes at room temperature. Stop solution (5 μl) was then added; the lysate-stop solution was mixed, and incubated for 2 minutes at room temperature. A volume of 10 μl of stopped lysate was added to a 50 μl RT reaction followed by addition of 4 μl of RT reaction into a 20 μl PCR reaction using the β-actin primers/probe of the TaqMan® Gene Expression Cells-to-CT™ Kit (Applied Biosystems).
# proteinase K [2] = target: T1, proteinase K; assay: Indirect linked assay: proteinase K inhibition read out by reverse transcriptase real time PCR of Xeno RNA template (Cells-to-CT kit); details: for proteinase K inhibitory activity: all concentrations tested; for Ct (cycle threshold): all concentrations tested (1 mM to 0.05 mM), no Xeno RNA detected; for lowest concentration in the stopped mixture with inhibitory activity for proteinase K: Example 2, FIG. 1, tested 1 mM to 0.05 mM in stopped mixture
# Excerpt: The present example provides for inhibition of proteinase K in the context of preparing samples for nucleic acid detection. Said preparation of samples is described by pending U.S. patent application Ser. No. 12/122,274 filed May 16, 2008 entitled “Sample Preparation for In Situ Nucleic Acid Analysis, Methods and Compositions Therefor,” hereby incorporated by reference in its entirety. Embodiments of said patent application provide a process for preparing a sample containing RNA for in situ analysis of RNA or a surrogate thereof. In some embodiments, the process comprises contacting the sample containing RNA with a lysis mixture comprising a polypeptide having protease activity under conditions and for a time to produce a lysate, and admixing at least a portion of the lysate with a stop mixture that comprises an inhibitor of the polypeptide having protease activity at substantially the same temperature as the contacting step to form a stopped mixture. The resultant stopped mixture is preferably compatible with in situ reverse transcriptase and DNA polymerase reactions.
# Methoxysuccinyl tetrapeptide chloromethylketone compounds synthesized as set forth in Example 1 herein were analyzed for inhibitory activity of proteinase K in such stopped mixtures as described below. Functional validation for the nucleic acid detection system using inhibitors of embodiments herein was carried out by measuring mRNA levels in biological samples using the TaqMan® Gene Expression Cells-to-CT™ Kit and the TaqMan® Cells-to-CT™ Control Kit (Applied Biosystems, Foster City, Calif.). MicroAmp® optical 96-well reaction plates were purchased from Applied Biosystems. Disposable reagent reservoirs were purchased from VistaLab Technologies, Inc (Mt. Kisco, N.Y.). Reverse transcription (RT) reactions were performed at 37° C. for 60 min, 95° C. for 5 min, and cooled to 4° C. by using GeneAmp® PCR systems 9700 (Applied Biosystems). Real time PCR was performed by using 7500 Fast Real-Time PCR System. (Applied Biosystems).
# The present indirect linked assay measures the amount of inhibition of proteinase K activity by assaying reverse transcriptase real time PCR amplification of a template, which amplification is dependent upon reverse transcriptase activity.
# Stop solutions (100 μl) contained the following reagents (10× concentration):
# Test inhibitor, 11 mM (final concentration when diluted into stopped mixture is 1 mM). Test inhibitor was also used at concentrations such that, when diluted with a lysis mixture to form a stopped mixture as described below, the final concentration of inhibitor in the stopped mixture was 0.75 mM, 0.5 mM, 0.25 mM, 0.10 mM, 0.05 mM and 0 mM (control).
# Proteinase K lysis solution (50 μL (no added DNase)) from the TaqMan® gene expression Cells-to-CT™ kit (Applied Biosystems) was aliquoted into 18 tubes. To the test samples (these are a working equivalent to lysis mixtures in the Cells-to-CT™ workflow), stop solution (5 μL) was added; the tubes were mixed and held for 2 min at room temperature. For the control reactions, 50 μl of proteinase K buffer was mixed with 5 μl of stop mix without inhibitor and the resulting reaction mixture was heated at 95° C. for 10 min to thermally inactivate the proteinase K reaction. Next, reverse transcription reagents were prepared, i.e. 15 μL 2×RT buffer, and 1.5 μL of 20×RT enzyme mix, were aliquoted and mixed in the wells of a 96 well plate. To this RT solution, 13.5 μL of each proteinase K containing stopped mixture was added and the solution was mixed well. The resulting mixtures were incubated at room temperature for 1 hr for residual proteinase K activity to degrade the RT enzyme. After 1 hr incubation at room temperature, 1 μL of Xeno™ RNA Control template (Applied Biosystems P/N 4386995 diluted to 25,000 copies/μL in 10 ng/μL poly A) was added to all wells except for the no template control wells. […]
# proteinase K [3] = target: T1, proteinase K; assay: Direct assay: residual proteinase K activity on BSA substrate, Protein 80 Bioanalyzer chip; details: FIG. 2
# Method: A direct assay for inhibition of proteinase K activity by MeOSuc-AAPF-CH2Cl (SEQ ID NO:5) was carried out using bovine serum albumin (BSA) as substrate and analyzing products using each Bioanalyzer chips and precast protein gels. Such direct assays were carried out to separate inhibition of proteinase K by a test inhibitor from any effects the stopped mixture may have on an RT-PCR reaction.
# The reaction mixtures included the proteinase K solution (50 μL, 100 μg/ml) mixed with 5 μL of stop solution having varying amounts of tetrapeptide, MeOSuc-AAPF-CH2Cl (SEQ ID NO:5), as for Example 2. Incubation was for 10 min at room temperature. To assay for proteinase K activity, ultrapure BSA (12 μL of 50 mg/ml) was added to each sample and the samples were held for 10 min at room temperature. Resultant mixtures were heated for 30 min at 95° C. and analyzed using a Protein 80 Bioanalyzer chip (2100 Bioanalyzer, Agilent, Santa Clara, Calif.). The Bioanalyzer protein gel data is provided in FIG. 2, in which intact Ultrapure BSA (Applied Biosystems) is at about 70 kDa, and proteinase K is at about 35 kDa. The lanes of FIG. 2 are labeled as follows from left to right: Ladder; BSA only; No BSA (proteinase K only); MeOSuc-AAPF-CH2Cl (SEQ ID NO:5) in the stopped mixture at 1 mM, 0.75 mM, 0.5 mM, 0.25 mM, 0.125 mM, and 0 mM.
# proteinase K [4] = target: T1, proteinase K; assay: Direct assay: residual proteinase K activity on BSA substrate, precast SDS protein gel
# Method: For the precast SDS denaturing protein gel analysis data of FIG. 3, proteinase K (50 μl of 100 μg/ml) lysis mixture without DNase (as for Example 2) was mixed with 5 μl of stop solution with varying amounts of MeOSuc-AAPF-CH2Cl (SEQ ID NO:5) and incubated for 10 min at room temperature. Ultrapure BSA (10 μl of 5 mg/ml, Applied Biosystems) was added to each sample and the samples were held for 10 min at room temperature. The reaction mixture was heated for 30 min at 95° C. and analyzed using precast protein gels (BIO-RAD, Hercules, Calif.). From the 65 μl of total reaction mixture, 10 μl reaction mixture was mixed with 5 μl of gel loading dye and further heated at 95° C. for 5 min. Then, the reactions were kept on ice for 2 min and loaded on the gel. Control reactions, with and without BSA, were also carried out. […]
# The precast protein gel was run at 120 V for 1 h using 1× Tris/glycine/SDS buffer (BIO-RAD, Hercules, Calif.). […] The gel was analyzed using AlphaEase™ FC software (Alpha Innotech, San Leandro, Calif.). […]
# Proteinase K (50 μl of 100 μg/ml) lysis mixture without DNase (as for Example 2) was mixed with 5 μl of stop solution with varying amounts of MeOSuc-AAAPL-CH2Cl (SEQ ID NO:7) and incubated for 10 min at room temperature. […] The reaction mixture was heated for 30 min at 95° C. and analyzed using precast protein gels (BIO-RAD, Hercules, Calif.). […]
# T1 sequence (P06873 106-384): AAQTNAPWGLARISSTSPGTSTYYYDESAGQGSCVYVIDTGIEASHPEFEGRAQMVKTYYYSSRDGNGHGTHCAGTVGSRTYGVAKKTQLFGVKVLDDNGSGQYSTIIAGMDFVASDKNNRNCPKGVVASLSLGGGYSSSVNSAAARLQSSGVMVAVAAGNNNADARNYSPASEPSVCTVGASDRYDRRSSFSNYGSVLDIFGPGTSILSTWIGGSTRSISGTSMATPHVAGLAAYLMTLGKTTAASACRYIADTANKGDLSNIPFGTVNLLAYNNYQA
substance,measurement,setting,value
MeOSuc-AlaAlaAlaProVal-CH2Cl (AAAPV; HELM PEPTIDE1{[COC(=O)CCC(=O)[*:2]].A.A.A.P.V.[ClC[*:1]]}$$$$V2.0; SMILES COC(=O)CCC(=O)N[C@@H](C)C(=O)N[C@@H](C)C(=O)N[C@@H](C)C(=O)N1CCC[C@H]1C(=O)N[C@H](C(=O)CCl)C(C)C) [MeOSuc-AAAPV-CH2Cl],concentration providing effective inhibition of proteinase K,proteinase K [1],0.5 mM
same,concentration required to achieve the same level of inhibition as MeOSuc-AAPV-CH2Cl at 0.25 mM,proteinase K [2]; FIG. 5,0.75 mM
methoxysuccinyl-APAF-chloromethyl ketone (HELM PEPTIDE1{[COC(=O)CCC(=O)[*:2]].A.P.A.F.[ClC[*:1]]}$$$$V2.0; SMILES COC(=O)CCC(=O)N[C@@H](C)C(=O)N1CCC[C@H]1C(=O)N[C@@H](C)C(=O)N[C@@H](Cc1ccccc1)C(=O)CCl) [MeOSuc-APAF-CH2Cl],proteinase K inhibitory activity,proteinase K [2]; FIG. 1,inactive at all concentrations tested
same,Ct (cycle threshold),proteinase K [2]; FIG. 1,40
methoxysuccinyl-APAL-chloromethyl ketone (HELM PEPTIDE1{[COC(=O)CCC(=O)[*:2]].A.P.A.L.[ClC[*:1]]}$$$$V2.0; SMILES COC(=O)CCC(=O)N[C@@H](C)C(=O)N1CCC[C@H]1C(=O)N[C@@H](C)C(=O)N[C@@H](CC(C)C)C(=O)CCl) [MeOSuc-APAL-CH2Cl],lowest concentration in the stopped mixture with inhibitory activity for proteinase K,proteinase K [2],about 0.5 mM
MeOSuc-AlaAlaAlaProPhe-CH2Cl (AAAPF; HELM PEPTIDE1{[COC(=O)CCC(=O)[*:2]].A.A.A.P.F.[ClC[*:1]]}$$$$V2.0; SMILES COC(=O)CCC(=O)N[C@@H](C)C(=O)N[C@@H](C)C(=O)N[C@@H](C)C(=O)N1CCC[C@H]1C(=O)N[C@@H](Cc1ccccc1)C(=O)CCl) [MeOSuc-AAAPF-CH2Cl],concentration providing effective inhibition of proteinase K,proteinase K [1],about 0.1 mM
same,concentration required to achieve the same level of inhibition as MeOSuc-AAPF-CH2Cl at 0.05 mM,proteinase K [2]; FIG. 5 compared to FIG. 1,0.1 mM
methoxysuccinyl-AAPL-chloromethyl ketone (HELM PEPTIDE1{[COC(=O)CCC(=O)[*:2]].A.A.P.L.[ClC[*:1]]}$$$$V2.0; SMILES COC(=O)CCC(=O)N[C@@H](C)C(=O)N[C@@H](C)C(=O)N1CCC[C@H]1C(=O)N[C@@H](CC(C)C)C(=O)CCl) [MeOSuc-AAPL-CH2Cl],concentration providing effective inhibition of proteinase K,proteinase K [1],about 0.1 mM
methoxysuccinyl-AAPF-chloromethyl ketone (HELM PEPTIDE1{[COC(=O)CCC(=O)[*:2]].A.A.P.F.[ClC[*:1]]}$$$$V2.0; SMILES COC(=O)CCC(=O)N[C@@H](C)C(=O)N[C@@H](C)C(=O)N1CCC[C@H]1C(=O)N[C@@H](Cc1ccccc1)C(=O)CCl) [MeOSuc-AAPF-CH2Cl],lowest concentration capable of inhibiting proteinase K,proteinase K [3]; 10 min incubation with proteinase K (100 μg/ml) before BSA,0.125 mM
same,concentration capable of inhibiting proteinase K when incubated for a longer period prior to BSA,proteinase K [3]; longer incubation with proteinase K before addition of BSA substrate,< 0.125 mM
same,inhibiting concentration relative to MeOSuc-AAPV-CH2Cl,"proteinase K [4]; FIG. 3, compare lanes at 0.5 mM and 0.25 mM",at least half that of MeOSuc-AAPV-CH2Cl
same,lowest concentration in the stopped mixture with inhibitory activity for proteinase K,proteinase K [2]; listed as MeOSuc-AlaAlaProPhe-CH2Cl,0.05 mM
same,average Ct (cycle threshold),"proteinase K [2]; FIG. 1, 0.05 mM inhibitor",about 30
methoxysuccinyl-AAAPL-chloromethyl ketone (HELM PEPTIDE1{[COC(=O)CCC(=O)[*:2]].A.A.A.P.L.[ClC[*:1]]}$$$$V2.0; SMILES COC(=O)CCC(=O)N[C@@H](C)C(=O)N[C@@H](C)C(=O)N[C@@H](C)C(=O)N1CCC[C@H]1C(=O)N[C@@H](CC(C)C)C(=O)CCl) [MeOSuc-AAAPL-CH2Cl],concentration providing effective inhibition of proteinase K,proteinase K [1],about 0.1 mM
same,lowest concentration capable of inhibiting proteinase K (BSA present in gel lane),"proteinase K [4]; FIG. 7, tested 1 mM to 0.05 mM in stopped mixture",0.1 mM and 0.10 mM
same,lowest concentration in the stopped mixture inhibitory for proteinase K activity,"proteinase K [2]; Example 6, FIG. 5, tested 1 mM to 0.05 mM",about 0.05 mM
methoxysuccinyl-APAV-chloromethyl ketone (HELM PEPTIDE1{[COC(=O)CCC(=O)[*:2]].A.P.A.V.[ClC[*:1]]}$$$$V2.0; SMILES COC(=O)CCC(=O)N[C@@H](C)C(=O)N1CCC[C@H]1C(=O)N[C@@H](C)C(=O)N[C@H](C(=O)CCl)C(C)C) [MeOSuc-APAV-CH2Cl],proteinase K inhibitory activity,proteinase K [2]; FIG. 1,inactive at all concentrations tested
same,Ct (cycle threshold),proteinase K [2]; FIG. 1,40
